# Test results published in US11891445 (ABL BIO, dated 2024).
# T1: recombinant human B7-H3 protein with a histidine tag linked to the C terminal (2318-B3/CF, R&D Systems) (human) (UniProt Q5ZPR3)
# T1 sequence (looked up): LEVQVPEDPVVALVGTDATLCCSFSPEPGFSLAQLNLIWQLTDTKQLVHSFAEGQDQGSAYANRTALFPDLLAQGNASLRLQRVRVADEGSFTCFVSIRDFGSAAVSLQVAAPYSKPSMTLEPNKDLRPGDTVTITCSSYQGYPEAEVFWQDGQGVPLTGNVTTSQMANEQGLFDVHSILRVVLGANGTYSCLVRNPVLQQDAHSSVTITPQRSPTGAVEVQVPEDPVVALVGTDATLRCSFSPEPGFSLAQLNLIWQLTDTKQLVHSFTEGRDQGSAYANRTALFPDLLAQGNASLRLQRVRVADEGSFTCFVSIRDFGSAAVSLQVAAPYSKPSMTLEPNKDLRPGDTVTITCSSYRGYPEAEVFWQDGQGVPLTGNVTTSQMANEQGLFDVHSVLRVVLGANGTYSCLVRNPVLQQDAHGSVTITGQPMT
# T2: recombinant human B7-H3 protein (bought antigen used for ELISA analysis and T cell activity analysis) (human, UniProt Q5ZPR3 29-461)
# T2 construct: range 1-461; also called extracellular domain (ECD) of B7-H3 protein; not shown: C-terminal histidine tag or Fc region of human IgG1 (Sino Biological 11188-H02H)
# T2 sequence (looked up): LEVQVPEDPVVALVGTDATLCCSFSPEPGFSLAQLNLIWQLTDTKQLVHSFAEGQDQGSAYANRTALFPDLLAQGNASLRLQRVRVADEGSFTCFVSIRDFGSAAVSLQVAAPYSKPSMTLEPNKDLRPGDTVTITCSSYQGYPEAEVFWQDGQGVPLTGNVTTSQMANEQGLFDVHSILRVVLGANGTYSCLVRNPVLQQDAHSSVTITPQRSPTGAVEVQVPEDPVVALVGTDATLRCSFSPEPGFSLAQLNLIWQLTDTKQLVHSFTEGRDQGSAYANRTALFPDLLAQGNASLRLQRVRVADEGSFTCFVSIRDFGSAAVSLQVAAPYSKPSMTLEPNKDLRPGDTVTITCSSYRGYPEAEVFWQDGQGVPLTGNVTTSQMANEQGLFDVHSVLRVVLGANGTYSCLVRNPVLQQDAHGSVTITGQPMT
# Target: T1, recombinant human B7-H3 protein with a histidine tag linked to the C terminal (2318-B3/CF, R&D Systems) (human)
# Test: ELISA, soluble scFv on coated B7-H3-His 100 ng per well, anti-HA HRP
row,absorbance at 450 nm,Binder
1,1,"anti-B7-H3 scFv clone B5 (soluble monoclonal scFv) (scFv, part only; not given: linker, domain order and HA tag, V domains shown, not shown: another chain or arm of the molecule; small tags and cut ends) VH: EVQLLESGGGLVQPGGSLRLSCAASGFTFSDYAMSWVRQAPGKGLEWVSSISSGSGSIYYADSVKGRFTISRDNSKNTLYLQMNSLRAEDTAVYYCAKNLIPLDYWGQGTLVTVSS VL: QSVLTQPPSASGTPGQRVTISCSGSSSNIGSNAVSWYQQLPGTAPKLLIYYNSHRPSGVPDRFSGSKSGTSASLAISGLRSEDEADYYCGSWDASLNAYVFGGGTKLTVL"
2,1,"anti-B7-H3 scFv clone F6V (soluble monoclonal scFv) (scFv, part only; not given: linker, domain order and HA tag, V domains shown, not shown: another chain or arm of the molecule; small tags and cut ends) VH: EVQLLESGGGLVQPGGSLRLSCAASGFTFSDYAMSWVRQAPGKGLEWVSGISPGGSNTYYADSVKGRFTISRDNSKNTLYLQMNSLRAEDTAVYYCAKDAWIARLLLFDYWGQGTLVTVSS VL: QSVLTQPPSASGTPGQRVTISCSGSSSNIGSNAVTWYQQLPGTAPKLLIYYNNKRPSGVPDRFSGSKSGTSASLAISGLRSEDEADYYCGTWDDSLSGYVFGGGTKLTVL"
3,1,"anti-B7-H3 scFv clone D8G M3 (soluble monoclonal scFv) (scFv, part only; not given: linker, domain order and HA tag, V domains shown, not shown: another chain or arm of the molecule; small tags and cut ends) VH: EVQLLESGGGLVQPGGSLRLSCAASGFTFSSYSMSWVRQAPGKGLEWVSGIYSDASNTYYADSVKGRFTISRDNSKNTLYLQMNSLRAEDTAVYYCAKMLHRFDYWGQGTLVTVSS VL: QSVLTQPPSASGTPGQRVTISCSGSSSNIGSNSVTWYQQLPGTAPKLLIYADVQRPSGVPDRFSGSKSGTSASLAISGLRSEDEADYYCGTWDSSLNAYVFGGGTKLTVL"
4,1,"anti-B7-H3 scFv clone D8G M1 (soluble monoclonal scFv) (scFv, part only; not given: linker, domain order and HA tag, V domains shown, not shown: another chain or arm of the molecule; small tags and cut ends) VH: EVQLLESGGGLVQPGGSLRLSCAASGFTFSSYSMSWVRQAPGKGLEWVSGIYSDASNTYYADSVKGRFTISRDNSKNTLYLQMNSLRAEDTAVYYCAKMLHRFDYWGQGTLVTVSS VL: QSVLTQPPSASGTPGQRVTISCSGSSSNIGSNSVTWYQQLPGTAPKLLIYADSQRPSGVPDRFSGSKSGTSASLAISGLRSEDEADYYCGTWDSSLNAYVFGGGTKLTVL"
5,1,"anti-B7-H3 scFv clone D8G (soluble monoclonal scFv) (scFv, part only; not given: linker, domain order and HA tag, V domains shown, not shown: another chain or arm of the molecule; small tags and cut ends) VH: EVQLLESGGGLVQPGGSLRLSCAASGFTFSSYSMSWVRQAPGKGLEWVSGIYSDGSNTYYADSVKGRFTISRDNSKNTLYLQMNSLRAEDTAVYYCAKMLHRFDYWGQGTLVTVSS VL: QSVLTQPPSASGTPGQRVTISCSGSSSNIGSNSVTWYQQLPGTAPKLLIYADSQRPSGVPDRFSGSKSGTSASLAISGLRSEDEADYYCGTWDSSLNAYVFGGGTKLTVL"
6,1,"anti-B7-H3 scFv clone C4I (soluble monoclonal scFv) (scFv, part only; not given: linker, domain order and HA tag, V domains shown, not shown: another chain or arm of the molecule; small tags and cut ends) VH: EVQLLESGGGLVQPGGSLRLSCAASGFTFSGYYMSWVRQAPGKGLEWVSLISPSSGSIYYADSVKGRFTISRDNSKNTLYLQMNSLRAEDTAVYYCAKGLTKFDYWGQGTLVTVSS VL: QSVLTQPPSASGTPGQRVTISCTGSSSNIGSNDVSWYQQLPGTAPKLLIYANSHRPSGVPDRFSGSKSGTSASLAISGLRSEDEADYYCGSWDDSLSGYVFGGGTKLTVL"

# Target: T2, recombinant human B7-H3 protein (bought …)
# Test: ELISA on plate-coated recombinant human B7-H3
# Experimental: Specifically, after diluting the recombinant human B7-H3 protein at a concentration of 1 µg/ml and putting it into a 96-well plate (Nunc-Immuno Plates, NUNC) in 100 µl per well, it was reacted at 4° C. for 16 hrs for coating. The recombinant human B7-H3 protein used in Example 1 was used here.
# Then, after removing the protein and washing it with PBST, a PBS buffer comprising 1% BSA (bovine serum albumin) was put at 200 µl per well and it was reacted at 37° C. for 2 hrs to block non-specific binding. Then, after diluting anti-B7-H3 antibodies prepared in Example 2 at a concentration of 10 µg/ml on the 96-well plate, 100 µl was put in each well and it was reacted at 37° C. for 1 hr. Then after it was washed with PBST. In order to detect antibodies bound to human B7-H3, HRP-connected anti-human IgG F(ab')2 antibody (Goat anti-Human IgG F(ab')2 Cross-Adsorbed Secondary Antibody, HRP, Pierce, 31414) was diluted by 1:10,000 in PBS comprising 1% bovine serum albumin (BSA), and 100 µl was put per well and it was reacted at 37° C. for about 1 hr. After washing it with PBST again, TMB (Tetramethylbenzidine, Sigma, T0440) 100 µl was put to develop color. After reacting it at RT for 5-10 min, 50 µl of 1N H_2SO_4 was put to finish the reaction, and the absorbance at 450 nm and 650 nm was measured by using a micro plate reader (molecular device).
row,EC50 (read off the curve) [nM],Binder
1,~0.02,"anti-B7-H3 antibody D8G M1 (full IgG form) (antibody, V domains shown) VH: EVQLLESGGGLVQPGGSLRLSCAASGFTFSSYSMSWVRQAPGKGLEWVSGIYSDASNTYYADSVKGRFTISRDNSKNTLYLQMNSLRAEDTAVYYCAKMLHRFDYWGQGTLVTVSS VL: QSVLTQPPSASGTPGQRVTISCSGSSSNIGSNSVTWYQQLPGTAPKLLIYADSQRPSGVPDRFSGSKSGTSASLAISGLRSEDEADYYCGTWDSSLNAYVFGGGTKLTVLG"
2,~0.02,"anti-B7-H3 antibody D8G M3 (full IgG form) (antibody, V domains shown) VH: EVQLLESGGGLVQPGGSLRLSCAASGFTFSSYSMSWVRQAPGKGLEWVSGIYSDASNTYYADSVKGRFTISRDNSKNTLYLQMNSLRAEDTAVYYCAKMLHRFDYWGQGTLVTVSS VL: QSVLTQPPSASGTPGQRVTISCSGSSSNIGSNSVTWYQQLPGTAPKLLIYADVQRPSGVPDRFSGSKSGTSASLAISGLRSEDEADYYCGTWDSSLNAYVFGGGTKLTVLG"
